Results as given in US20230348852A1, “METHODS AND COMPOSITIONS FOR OCULAR CELL THERAPY” (NOVARTIS AG, priority 2020, published 2023).

Key:
B2M [1] = test: Targeted PCR and NGS (amplicon sequencing) of on-target and off-target sites in genome-edited LSCs; type: cell-based, human; conditions: for validated indels for off-target activity in LSCs: amplicon sequencing of potential off-target loci; for Number of sites positive for off-target activity in LSCs: of the potential off-target loci sequenced; for B2M purified rhAmpSeq indel: purified (B2M negative) LSC populations
Description: Potential CRISPR/Cas9-mediated cutting sites identified above were evaluated using targeted PCR and NGS in genome-edited expanded LSCs.
Selected sgRNAs (SEQ ID NO: 120, 162, 166, 167, 171, and 175) were further analyzed by amplicon sequencing in edited and non-edited cells. Primers flanking the potential off-target sites for each guide were used to detect indels by NGS analysis in edited LSCs and non-edited peripheral blood mononuclear cells. Sites that had either (1) a difference in mean indel percentage between edited and unedited cells greater than 0.5%; or (2) a p value less than 0.05 between edited and unedited indel were further analyzed. NGS sequence reads for such sites were assessed for characteristic indel patterns near the putative Cas9 cut site. Based on the results, we could assess the specificity of gRNAs and their suitability for therapeutic applications.

[2] = system: genomic DNA purified from male human peripheral blood mononuclear cells; test: Biochemical assay for potential off-target genomic sites cleaved by Cas9 and B2M guides; conditions: number of potential off-target sites, guide concentration 64 nM
Description: A biochemical method (See, e.g., Cameron et al., Nature Methods. 6, 600-606; 2017) was used to determine potential off-target genomic sites cleaved by Cas9 and selected B2M guides. Guides showing B2M indel activity were tested for potential off-target genomic cleavage sites with this assay. […] The number of potential off-target sites detected using a guide concentration of 64 nM in the biochemical assay are shown in Table 10. As a result of this analysis, several gRNAs were selected for analysis of potential off-target activity in limbal stem cells.

human B2M = test: CRISPR/Cas9-mediated deletion of B2M in HEK293 (lipofection, FACS); type: cell-based; conditions: lipofection of tracrRNA, gRNA and Cas9 mRNA; FACS after 72 h
Description: One day before transfection, 500′000 HEK293cells (ATCC, Manassas, VA) were plated in a 35 mm dish and grown in DMEM/10%FBS. The following day, cells were transfected with a mixture of tracrRNA-gRNA-Cas9 mRNA. A stock of 10 micromolar was prepared resuspending 20 nanomoles of gRNA and 20 nanomoles tracrRNA in 2000 microlitre 10 millimolar Tris buffer pH7.4 each.
The mixture was added drop wise to the culture dish in 2.5 ml DMEM/10%FBS medium. The transfection reagent alone represented the transfection negative control.
After 6 h incubation in 5% CO2 at 37° C. medium was replaced with fresh DMEM/10%FBS medium. After 72 h in a 5% CO2 incubator cells were prepared for FACS analysis. FACS analysis: HEK293 cells were treated with Accutase (ThermoFisher, Cat # A1110501) for 20 minutes in 5% CO2 at 37° C. The reaction was stopped by using cell culture medium containing 10% Serum and transferred to a falcon tube for a centrifugation step (1000 rpm, 5 minutes). After aspirating the medium cells were resuspended in 200 microlitre FACS buffer (PBS/10%FBS).
To analyze the expression of B2M and HLA-ABC, 5 microlitre APC mouse anti-human β2-microglobulin antibody (Biolegend, Cat #316312) and 20 microlitre PE mouse anti-human HLA-ABC antibody (BD Bioscience, Cat # 560168) were added to the cell suspension and incubated for 30 minutes on ice. Cells were washed 3 times after antibody labelling with FACS buffer and resuspended in 500 microlitre in FACS buffer.
Each sample was transferred to one well of a round bottom 96 well plate and analyzed on a BD LSRFortessa X-20 device. FACS data were analyzed using BD FACSDiva software.

B2M [3] = test: sgRNA screening for B2M knockout in LSCs (nucleofection, FACS); type: cell-based, human; conditions: Cas9 protein SEQ ID NO: 106, LSCs at passage 3, FACS after around 3 days
Description: Cells were cultured under these conditions for 24-48 hours at 37° C. in 5% CO2.
LSCs were nuclofected with selected gRNAs (Table 6) followed by FACS analysis / MACS separation.
After scraping the cells, the reaction was stopped by using cell culture medium containing 10% Serum and transferred to a falcon tube. After counting cells using Vi-cell 300′000 cells were prepared per reaction by transferring 300′000 cells in single tubes and centrifuged at 1000 rpm for 5 min. The supernatant was aspirated using manually pipetting to avoid cell loss and the cells were resuspended in the Stem cell nucleofector solution II (Lonza, Cat #VPH-5022). Resuspend cells in nucleofector solution immediately before adding the Cas9 RNP:sgRNA mixture. To obtain the nucleofection mixture, 5 µg high concentrated (≥5 µg/µl) Cas9 protein of SEQ ID NO: 106 (volume = 0.78 µl) was mixed with 19.5 µg sgRNA of Table 6 (volume = 12.2 µl) and incubated for 20 min at room temperature. […] The Cas9 protein-guideRNA complex was added to the cell suspension and transferred to the electroporation cuvette immediately. Cells were transfected using the nucelofector device (Lonza, Amaxa Nucleofector II) and program A023. After nucleofection cells were transferred from cuvette to one well of a 24 well synthemax coated plate containing pre-warmed LSC medium including 3 µM LATS compound and 10 µM Rock inhibitor Y-27632 (Nature 1997, vol. 389, pp. 990-994). Incubate LSCs in a 5% CO2 incubator for around 3 days until cells are 90% confluent.
LSCs were treated with TryLE®Express Enzym (ThermoFisher, Cat #12605010) for 15 minutes in 5% CO2 at 37° C. After scraping the cells, the reaction was stopped by using cell culture medium containing 10% Serum and transferred to a falcon tube for a centrifugation step (1000 rpm, 5 minutes). After aspirating the medium cells were resuspended in 200 µl FACS buffer (PBS/10%FBS).
To analyze the expression of B2M and HLA-ABC, 5 µl APC mouse anti-human β2-microglobulin antibody (Biolegend, Cat#316312) and 20 µl PE mouse anti-human HLA-ABC antibody (BD Bioscience, Cat # 560168) were added to the cell suspension and incubated for 30 minutes on ice.
Cells were washed 3 times after antibody labelling with FACS buffer and resuspended in 200 µl in FACS buffer (depending on the cell number).
FACS data were analyzed using BD FACSDiva software and FlowJo software.

Molecule	validated indels for off-target activity in LSCs (B2M [1])	Number of sites positive for off-target activity in LSCs (B2M [1])	Number of sites positive for off-target activity in LSCs (B2M [1]; listed as SEQ ID NO: 162)	B2M purified rhAmpSeq indel (B2M [1])	B2M purified rhAmpSeq indel (B2M [1]; listed as SEQ ID NO: 162)	off-target Site_ Count [2]	B2M knockout efficiency in HEK293 (human B2M)	B2M knockout efficiency in LSCs after nucleofection (B2M [3])	Number of sites positive for off-target activity in LSCs (B2M [1]; listed as SEQ ID NO: 166)	B2M purified rhAmpSeq indel (B2M [1]; listed as SEQ ID NO: 166)	Number of sites positive for off-target activity in LSCs (B2M [1]; listed as SEQ ID NO: 167)	B2M purified rhAmpSeq indel (B2M [1]; listed as SEQ ID NO: 167)
4-CR004366: gRNA targeting human B2M; targeting domain SEQ ID NO: 111; sgRNA SEQ ID NO: 162; from Dharmacon (nucleic acid, listed as RNA, chemistry not given here, gRNA targeting human B2M; from Dharmacon) guide: CAGUAAGUCAACUUCAAUGUGUUUUAGAGCUAGAAAUAGCAAGUUAAAAUAAGGCUAGUCCGUUAUCAACUUGAAAAAGUGGCACCGAGUCGGUGCUUUU	zero	0 of 88	no predicted sites tested positive for off-target activity	99.85±0.21%	~ 99%	92	48%	22%				
8-HEYJA000004: gRNA targeting human B2M; targeting domain SEQ ID NO: 115; sgRNA SEQ ID NO: 166 (nucleic acid, listed as RNA, chemistry not given here) guide: ACUCACGCUGGAUAGCCUCCGUUUUAGAGCUAGAAAUAGCAAGUUAAAAUAAGGCUAGUCCGUUAUCAACUUGAAAAAGUGGCACCGAGUCGGUGCUUUU	zero	0 of 60		99.95±0.07%		62	65%	22%	no predicted sites tested positive for off-target activity	~ 99%		
9-HEYJA000005: gRNA targeting human B2M; targeting domain SEQ ID NO: 116; sgRNA SEQ ID NO: 167 (nucleic acid, listed as RNA, chemistry not given here) guide: UCACGUCAUCCAGCAGAGAAGUUUUAGAGCUAGAAAUAGCAAGUUAAAAUAAGGCUAGUCCGUUAUCAACUUGAAAAAGUGGCACCGAGUCGGUGCUUUU	zero	0 of 35		99.80±0.26%		35	39%	12%			no predicted sites tested positive for off-target activity	~ 99%
6-HEYJA000001: gRNA targeting human B2M; targeting domain SEQ ID NO: 113; sgRNA SEQ ID NO: 164 (nucleic acid, listed as RNA, chemistry not given here) guide: GGCCGAGAUGUCUCGCUCCGGUUUUAGAGCUAGAAAUAGCAAGUUAAAAUAAGGCUAGUCCGUUAUCAACUUGAAAAAGUGGCACCGAGUCGGUGCUUUU						8	47%	33%				
